Measured values taken from patent US20220088131A1, “COMPOSITIONS AND METHODS RELATING TO C5L2” (King's College London, priority 2013, published 2022).

System: human CD4+ T cells
Assay: IL-1β secretion by CD4+ T cells (ELISA)
Assay type: cell-based
Conditions: resting and activated (CD3/CD46) CD4+ T cells; dRA 7 μM; 24 h; FIG. 8
Description: FIG. 8. Effect of C5L2 blockage on IL-1β secretion by resting and activated CD4+ T cells and by monocytes. […] CD4+ T cells were isolated and left non-activated or CD3/CD46-activated as described (with or without addition of the C5aR/C5L2 double antagonist, dRA, 7 μM) and IL-1β secretion into the media measured at 24 h post activation using an ELISA. CD14+ monocytes (2.5×10^5) were left non-activated or activated with 100 ng/ml LPS for 12 h and supernatants assayed for IL-1β by ELISA. Data represent n=3 experiments with SEM for the CD4+ T cells and n=1 for monocytes (conditions were performed in duplicate and shown are the median values of each condition).
Human blood was obtained from healthy volunteers following ethical guidelines set by Kings College London (KCL) ethics committee (REC: 09/H0804/72). PBMCs were isolated by density centrifugation (Ficoll-Paque PLUS; GE healthcare, Uppsala, Sweden). Cell subsets were isolated by magnetic separation following manufacturer's instructions (Miltenyi Biotec, Auburn, Calif.). […]
The Th1/Th2/Th17 Cytometric Bead Array (BD Bioscience) was used to quantify cytokine production by CD4^+ T cells and monocytes following 12 or 36 h culture under distinct activation conditions. […] IL-1β amounts secreted into the cell media were measured by ELISA, according to the manufacturer's protocol (R&D Systems, Abingdon, UK).

B1: A8delta71-73: Dual C5aR/C5L2 receptor antagonist; C5a variant A8 (C27A, H67F, D69R, M70S, Q71L, G73R, Arg74 deleted) lacking amino acids 71-73 (protein)
chain: TLQKKIEEIAAKYKHSVVKKCCYDGAAVNNDETCEQRAARISLGPRCIKAFTECCVVASQLRANISFKRS
- IL-1β secretion: increased IL-1β secretion
